From publication PMC9083542, “Small Molecule Inhibitor Targeting CDT1/Geminin Protein Complex Promotes DNA Damage and Cell Death in Cancer Cells” (Frontiers in Pharmacology, 2022)
Values belong to the molecule of their own block, whether it stands above or below them.

B3: Full-length human Geminin (natural protein, UniProt O75496 1-209, looked up)
chain: MNPSMKQKQEEIKENIKNSSVPRRTLKMIQPSASGSLVGRENELSAGLSKRKHRNDHLTSTTSSPGVIVPESSENKNLGGVTQESFDLMIKENPSSQYWKEVAEKRRKALYEALKENEKLHKEIEQKDNEIARLKKENKELAEVAEHVQYMAELIERLNGEPLDNFESLDNQEFDSEEETVEDSLVEDSEIGTCAEGTVSSSTDAKPCI
notes: Geminin, human, full length, cloned into pET22b; pET22b can add a C-terminal His tag (surmise); also called full length Geminin; source: E. coli Rosetta 2 (DE3), purified (Ni-NTA IMAC, SEC)

Key:
CDT1 (Homo sapiens) = CDT1 (Homo sapiens) (UniProt Q9H211); conditions: cited from earlier work
CDT1 = molecular target: T1, CDT1 (Homo sapiens, UniProt Q9H211); assay: SPR inhibition of Geminin binding to immobilized CDT1; AlphaScreen IC50 […]; FRET in MCF7 cells
T1 construct: tCDT1 (residues 158–356); also miniCDT1 (residues 158–396); with Geminin
T1 sequence (Q9H211 158-356): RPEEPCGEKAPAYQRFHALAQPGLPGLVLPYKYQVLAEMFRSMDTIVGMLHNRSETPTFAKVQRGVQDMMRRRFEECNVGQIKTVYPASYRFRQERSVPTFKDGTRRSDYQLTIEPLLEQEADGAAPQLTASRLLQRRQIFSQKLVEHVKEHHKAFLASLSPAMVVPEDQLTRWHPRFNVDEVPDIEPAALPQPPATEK
T1 sequence (O75496 1-209 partner): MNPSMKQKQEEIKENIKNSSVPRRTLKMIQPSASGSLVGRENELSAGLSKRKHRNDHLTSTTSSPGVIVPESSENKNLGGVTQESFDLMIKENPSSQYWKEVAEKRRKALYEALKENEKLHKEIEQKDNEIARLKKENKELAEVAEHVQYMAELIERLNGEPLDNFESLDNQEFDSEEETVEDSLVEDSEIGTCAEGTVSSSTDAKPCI

[1] = molecular target: T2, His-tagged human CDT1^158-396 Y170A (miniCDT1Y170A) (human, UniProt Q9H211 158-396, Y170A); assay: AlphaScreen or HTRF; HTS format and its optimisation (titration, data not shown): Flag-ΔDBGeminin/His6-miniCDT1Y170A complex 200-400 nM (300 nM in the screen), 10 μg/ml streptavidin Donor and nickel-chelate Acceptor beads, 25 nM biotinylated anti-Flag antibody; 25 mM Hepes pH 7.4, 100 mM NaCl, 0.2% BSA; conditions: both partners purified
T2 construct: CDT1, human, residues 158-396 with Y170A, cloned into pET28a; also called His6-tagged miniCDT1^Y170A; source: E. coli Rosetta 2 (DE3), expressed alone or co-expressed with ΔDBGeminin, purified (Ni-NTA IMAC, SEC); not shown: His6, N-terminal, kept
T2 sequence (looked up): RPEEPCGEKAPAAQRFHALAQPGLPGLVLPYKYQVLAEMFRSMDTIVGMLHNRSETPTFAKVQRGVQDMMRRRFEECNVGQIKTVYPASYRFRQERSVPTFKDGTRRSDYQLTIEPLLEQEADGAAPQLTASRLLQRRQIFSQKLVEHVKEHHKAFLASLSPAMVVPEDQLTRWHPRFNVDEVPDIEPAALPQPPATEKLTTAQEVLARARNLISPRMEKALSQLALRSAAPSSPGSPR

[2] = molecular target: T3, His-tagged human CDT1^158-396 F173A (miniCDT1F173A) (human, UniProt Q9H211 158-396, F173A); assay: AlphaScreen or HTRF; competition: Flag-ΔDBGeminin/His6-miniCDT1 mutant complex at 50 nM, streptavidin Donor beads with biotinylated anti-Flag antibody, nickel-chelate Acceptor beads; increasing untagged ΔDBGeminin; 25 mM Hepes pH 7.4, 100 mM NaCl, 0.1% BSA; 1.5 h at RT; conditions: both partners purified
T3 construct: CDT1, human, residues 158-396 with F173A, cloned into pET28a; source: E. coli Rosetta 2 (DE3), expressed alone or co-expressed with ΔDBGeminin, purified (Ni-NTA IMAC, SEC); not shown: His6, N-terminal, kept
T3 sequence (looked up): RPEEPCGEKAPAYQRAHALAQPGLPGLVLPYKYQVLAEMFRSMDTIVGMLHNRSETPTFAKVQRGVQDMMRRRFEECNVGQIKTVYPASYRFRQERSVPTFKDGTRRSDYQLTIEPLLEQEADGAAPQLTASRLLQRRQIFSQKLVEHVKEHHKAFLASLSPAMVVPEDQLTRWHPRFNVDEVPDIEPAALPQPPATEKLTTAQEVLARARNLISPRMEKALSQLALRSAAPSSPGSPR

[3] = molecular target: T4, His-tagged human CDT1^158-396 L176A (miniCDT1L176A) (human, UniProt Q9H211 158-396, L176A); assay: as above; conditions: both partners purified
T4 construct: CDT1, human, residues 158-396 with L176A, cloned into pET28a; Could not be isolated on its own (limited solubility); used only as complex with ΔDBGeminin; source: E. coli Rosetta 2 (DE3), co-expressed with ΔDBGeminin, co-purified (Ni-NTA IMAC, SEC)
T4 sequence (looked up): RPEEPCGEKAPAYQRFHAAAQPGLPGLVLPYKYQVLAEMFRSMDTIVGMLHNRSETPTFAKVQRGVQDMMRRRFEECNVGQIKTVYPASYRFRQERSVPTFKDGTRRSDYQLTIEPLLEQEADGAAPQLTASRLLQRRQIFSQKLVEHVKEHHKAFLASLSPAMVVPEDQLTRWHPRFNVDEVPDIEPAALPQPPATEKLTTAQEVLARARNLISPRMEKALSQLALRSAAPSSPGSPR

[4] = molecular target: T5, His-tagged human CDT1^158-396 (miniCDT1), wild type (human, UniProt Q9H211 158-396); assay: SPR; Biacore T100, 25°C; about 5.000 RU of miniCDT1 variants held on a Ni NTA chip via N-terminal His-tag; full-length Geminin injected at 1-100 nM; 20 mM Tris pH 7.5, 200 mM NaCl, 30 μl/min; conditions: both partners purified
T5 construct: CDT1, human, residues 158-396 (miniCDT1); plasmid described in De Marco et al., 2009; also called His6-tagged miniCDT1; source: E. coli Rosetta 2 (DE3), expressed alone or co-expressed with Geminin variants, purified (Ni-NTA IMAC, SEC); not shown: His6, N-terminal, kept
T5 sequence (looked up): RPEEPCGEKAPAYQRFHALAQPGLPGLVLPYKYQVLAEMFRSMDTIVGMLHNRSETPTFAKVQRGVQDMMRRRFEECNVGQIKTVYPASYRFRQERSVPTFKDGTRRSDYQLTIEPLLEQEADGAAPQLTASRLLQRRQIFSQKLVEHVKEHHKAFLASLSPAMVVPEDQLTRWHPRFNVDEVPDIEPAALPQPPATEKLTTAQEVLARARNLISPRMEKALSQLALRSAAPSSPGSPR

[5] = molecular target: T2, His-tagged human CDT1^158-396 Y170A …; assay: as above; conditions: both partners purified
[6] = molecular target: T3, His-tagged human CDT1^158-396 F173A …; assay: as above; conditions: both partners purified
CDT1-GFP = molecular target: T6, CDT1-GFP (UniProt Q9H211 1-546); assay: FRET or BRET; sensitized emission FRET in fixed MCF7 cells stably expressing CDT1-GFP (or GFP-NLS as control), transiently transfected with Geminin-dHcRed; with DMSO or AF615 at 11, 33, 100 μM for 24 h; conditions: partners not purified
T6 construct: CDT1 fused to GFP; plasmid and cell line from Xouri et al., 2007; also called MCF7 CDT1-GFP; source: MCF7 cells stably expressing CDT1-GFP, in fixed cells
T6 sequence (looked up): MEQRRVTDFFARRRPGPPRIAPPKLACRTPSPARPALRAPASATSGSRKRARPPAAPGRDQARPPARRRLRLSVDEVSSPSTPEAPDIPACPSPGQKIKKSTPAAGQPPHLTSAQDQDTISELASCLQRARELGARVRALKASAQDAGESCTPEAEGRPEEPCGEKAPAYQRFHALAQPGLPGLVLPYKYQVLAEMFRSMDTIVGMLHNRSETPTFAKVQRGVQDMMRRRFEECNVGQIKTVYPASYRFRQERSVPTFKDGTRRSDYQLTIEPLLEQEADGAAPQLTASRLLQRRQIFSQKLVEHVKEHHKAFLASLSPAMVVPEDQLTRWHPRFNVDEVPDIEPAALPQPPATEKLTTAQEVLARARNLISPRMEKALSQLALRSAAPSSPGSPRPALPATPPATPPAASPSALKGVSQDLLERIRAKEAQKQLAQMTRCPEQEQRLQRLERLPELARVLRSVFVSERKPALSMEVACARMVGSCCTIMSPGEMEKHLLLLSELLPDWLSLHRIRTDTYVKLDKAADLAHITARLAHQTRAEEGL

[7] = molecular target: B3; assay: SPR; Biacore T100, 25°C; tCDT1 (about 6.000 RU) or miniCDT1 covalently immobilised on a CM5 chip (amine coupling, pH 5.5); Geminin 12-966 nM with AF615 at 10 μM, 100 μM, 1 mM (20% DMSO); 20 mM Hepes pH 7.5, 200 mM NaCl, Tween 20 0.01%, 30 μl/min; conditions: both partners purified

Molecule: Geminin (from UniProt O75496)
- Kd (CDT1 (Homo sapiens)): 4.4 nM

Molecule: O=C(NNC(=S)N1CCOCC1)c1cnccn1 [AF615]
- Ki (CDT1): 370 nM

Molecule: B3
- Kd [4]: 9.4 nM
- Kd [5]: 41 nM
- Kd [6]: 25 nM

B4: Geminin-dHcRed (natural protein, UniProt O75496 1-209, looked up)
chain: MNPSMKQKQEEIKENIKNSSVPRRTLKMIQPSASGSLVGRENELSAGLSKRKHRNDHLTSTTSSPGVIVPESSENKNLGGVTQESFDLMIKENPSSQYWKEVAEKRRKALYEALKENEKLHKEIEQKDNEIARLKKENKELAEVAEHVQYMAELIERLNGEPLDNFESLDNQEFDSEEETVEDSLVEDSEIGTCAEGTVSSSTDAKPCI
notes: Geminin fused to dHcRed; plasmid from Xouri et al., 2007; source: MCF7 cells, transiently transfected, in fixed cells
- FRET mean intensity against cells expressing GFP-NLS and Geminin-dHcRed (CDT1-GFP): ~3 fold

Second part, the molecule after the results:

- AlphaScreen signal-to-background ratio [1]: > 20 fold
B1: Flag-tagged Geminin^28-209 (ΔDBGeminin) (domain or fragment, human, UniProt O75496 28-209, looked up)
chain: MIQPSASGSLVGRENELSAGLSKRKHRNDHLTSTTSSPGVIVPESSENKNLGGVTQESFDLMIKENPSSQYWKEVAEKRRKALYEALKENEKLHKEIEQKDNEIARLKKENKELAEVAEHVQYMAELIERLNGEPLDNFESLDNQEFDSEEETVEDSLVEDSEIGTCAEGTVSSSTDAKPCI
notes: Geminin, human, residues 28-209 (lacks the N-terminal stretch with the destruction box), cloned into pET22b; also called Flag-tagged ΔDBGeminin; source: E. coli Rosetta 2 (DE3), co-expressed with miniCDT1 variants, co-purified (Ni-NTA IMAC, SEC)

- excess of untagged ΔDBGeminin needed for a similar signal reduction [2]: 10 fold
- excess of untagged ΔDBGeminin needed for a similar signal reduction [3]: 100 fold
B2: untagged ΔDBGeminin (domain or fragment, human, UniProt O75496 28-209, looked up)
chain: MIQPSASGSLVGRENELSAGLSKRKHRNDHLTSTTSSPGVIVPESSENKNLGGVTQESFDLMIKENPSSQYWKEVAEKRRKALYEALKENEKLHKEIEQKDNEIARLKKENKELAEVAEHVQYMAELIERLNGEPLDNFESLDNQEFDSEEETVEDSLVEDSEIGTCAEGTVSSSTDAKPCI
notes: Geminin, human, residues 28-209 (ΔDBGeminin), without the Flag tag; also called untagged ΔDBGeminin (Geminin 28-209)

- binding result [7]: binds
B5: His-tagged human CDT1^158-356 (tCDT1) (domain or fragment, UniProt Q9H211 158-356, looked up)
chain: RPEEPCGEKAPAYQRFHALAQPGLPGLVLPYKYQVLAEMFRSMDTIVGMLHNRSETPTFAKVQRGVQDMMRRRFEECNVGQIKTVYPASYRFRQERSVPTFKDGTRRSDYQLTIEPLLEQEADGAAPQLTASRLLQRRQIFSQKLVEHVKEHHKAFLASLSPAMVVPEDQLTRWHPRFNVDEVPDIEPAALPQPPATEK
notes: CDT1, human, residues 158-356 (tCDT1); plasmid described in De Marco et al., 2009; source: E. coli Rosetta 2 (DE3), purified (Ni-NTA IMAC, SEC)
